Values of other authors, collected in paper PMC6451932.
pKd: −log10 of the molar value.

Target: fibrinogen β peptide (Fgβ) (Homo sapiens) (UniProt P02675)

For SdrG (from UniProt Q9KI13), the pKd is given as 6.52.
